Measured values taken from US12698507B2, “Methods and compositions for conferring and/or enhancing herbicide tolerance using protoporphyrinogen IX oxidase of various cyanobacteria or variant thereof” (FarmHannong Co., Ltd., priority 2019, dated 2026).

These molecules were tested on PPO-deficient BT3 E. coli (ΔPPO) (assay: PPO-inhibiting herbicide tolerance test of PPO variants in E. coli (growth on herbicide-containing LB agar)). Conditions: CyPPO19 variants in BT3 (ΔPPO) E. coli; LB agar with 0 to 2,000 μM herbicide, 37° C., dark, 16-20 hours.
Format: cell-based
Method in brief: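 PPO-deficient BT3 E. coli expressing each variant from pET303 were diluted to OD600=0.5, then 10-fold serially, and spotted on LB-ampicillin agar with 0 to 2,000 μM herbicide. After 16-20 h at 37° C. in the dark, growth relative to wild type was scored from '−' (equivalent) to '+' per 10-fold resistance, max '+++++'.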

Molecule | tolerance level relative to wild type, Carfentrazone | tolerance level relative to wild type, Flumioxazin | tolerance level relative to wild type, Fomesafen | tolerance level relative to wild type, Oxyfluorfen | tolerance level relative to wild type, Saflufenacil | tolerance level relative to wild type, Sulfentrazone | tolerance level relative to wild type, Tiafenacil
CyPPO19 V305M + F360T: variant of CyPPO19 PPO protein (SEQ ID NO: 1) (protein, Synthetic_PPO of Thermosynechococcus elongatus PKUAC-SCTE542 (comprising GenBank No. CP032152.1)) MSEVDVAIVGGGLSGLSLAWRLQQSAPQYSVVLLEASDRLGGNITTQTAEGFVWELGPNSFAPTPALLQLIAEVGLQSELIRGDRHLPRYIYWRGQLYPLQPTRPLALATSNLLSPWGKVRAALGALGFVPPYLGSGDESVNSFFRRHLGQEVAERLVAPFVSGVYAGDPQQLSAAAAFRRIAQLEKLGGGLIAGALHLRRQQAPKPKPPTSVQMRPGELGSFKEGLAALPRAIAQQLKAPIHLQTPVQEITPDPKGGYLLRSGEQTWRARSVVLATPAYQTAELVAPFQPAIARVLATIPYPTMACVVLAYPAGLGRSVRPGFGVLIPRSQGIRTLGTIWSSCLFPQRTPAGWQVFTSTIGGATDPDLASLSEEAIVQQVQQDLNRLLDLPAAKARLLGMKVWRRAIPQYMVGYPEQWQQVTHALSQTPGLFLCSNYAEGVALGDRVEHGNRTAAAVAAYLSGGQP | + (‘+’ per each 10-fold resistance) | ++ (‘+’ per each 10-fold resistance) | ++ (‘+’ per each 10-fold resistance) | + (‘+’ per each 10-fold resistance) | ++ (‘+’ per each 10-fold resistance) | + (‘+’ per each 10-fold resistance) | ++ (‘+’ per each 10-fold resistance)
CyPPO19 L327T + F360T: variant of CyPPO19 PPO protein (SEQ ID NO: 1) (protein, Synthetic_PPO of Thermosynechococcus elongatus PKUAC-SCTE542 (comprising GenBank No. CP032152.1)) MSEVDVAIVGGGLSGLSLAWRLQQSAPQYSVVLLEASDRLGGNITTQTAEGFVWELGPNSFAPTPALLQLIAEVGLQSELIRGDRHLPRYIYWRGQLYPLQPTRPLALATSNLLSPWGKVRAALGALGFVPPYLGSGDESVNSFFRRHLGQEVAERLVAPFVSGVYAGDPQQLSAAAAFRRIAQLEKLGGGLIAGALHLRRQQAPKPKPPTSVQMRPGELGSFKEGLAALPRAIAQQLKAPIHLQTPVQEITPDPKGGYLLRSGEQTWRARSVVLATPAYQTAELVAPFQPAIARVLATIPYPTVACVVLAYPAGLGRSVRPGFGVTIPRSQGIRTLGTIWSSCLFPQRTPAGWQVFTSTIGGATDPDLASLSEEAIVQQVQQDLNRLLDLPAAKARLLGMKVWRRAIPQYMVGYPEQWQQVTHALSQTPGLFLCSNYAEGVALGDRVEHGNRTAAAVAAYLSGGQP | + (‘+’ per each 10-fold resistance) | + (‘+’ per each 10-fold resistance) | + (‘+’ per each 10-fold resistance) | + (‘+’ per each 10-fold resistance) | + (‘+’ per each 10-fold resistance) | + (‘+’ per each 10-fold resistance) | ++ (‘+’ per each 10-fold resistance)
CyPPO19 L327T + F360I: variant of CyPPO19 PPO protein (SEQ ID NO: 1) (protein, Synthetic_PPO of Thermosynechococcus elongatus PKUAC-SCTE542 (comprising GenBank No. CP032152.1)) MSEVDVAIVGGGLSGLSLAWRLQQSAPQYSVVLLEASDRLGGNITTQTAEGFVWELGPNSFAPTPALLQLIAEVGLQSELIRGDRHLPRYIYWRGQLYPLQPTRPLALATSNLLSPWGKVRAALGALGFVPPYLGSGDESVNSFFRRHLGQEVAERLVAPFVSGVYAGDPQQLSAAAAFRRIAQLEKLGGGLIAGALHLRRQQAPKPKPPTSVQMRPGELGSFKEGLAALPRAIAQQLKAPIHLQTPVQEITPDPKGGYLLRSGEQTWRARSVVLATPAYQTAELVAPFQPAIARVLATIPYPTVACVVLAYPAGLGRSVRPGFGVTIPRSQGIRTLGTIWSSCLFPQRTPAGWQVFTSIIGGATDPDLASLSEEAIVQQVQQDLNRLLDLPAAKARLLGMKVWRRAIPQYMVGYPEQWQQVTHALSQTPGLFLCSNYAEGVALGDRVEHGNRTAAAVAAYLSGGQP | + (‘+’ per each 10-fold resistance) | ++++ (‘+’ per each 10-fold resistance) | + (‘+’ per each 10-fold resistance) | ++ (‘+’ per each 10-fold resistance) | ++ (‘+’ per each 10-fold resistance) | +++ (‘+’ per each 10-fold resistance) | ++++ (‘+’ per each 10-fold resistance)
CyPPO19 L327T + F360M: variant of CyPPO19 PPO protein (SEQ ID NO: 1) (protein, Synthetic_PPO of Thermosynechococcus elongatus PKUAC-SCTE542 (comprising GenBank No. CP032152.1)) MSEVDVAIVGGGLSGLSLAWRLQQSAPQYSVVLLEASDRLGGNITTQTAEGFVWELGPNSFAPTPALLQLIAEVGLQSELIRGDRHLPRYIYWRGQLYPLQPTRPLALATSNLLSPWGKVRAALGALGFVPPYLGSGDESVNSFFRRHLGQEVAERLVAPFVSGVYAGDPQQLSAAAAFRRIAQLEKLGGGLIAGALHLRRQQAPKPKPPTSVQMRPGELGSFKEGLAALPRAIAQQLKAPIHLQTPVQEITPDPKGGYLLRSGEQTWRARSVVLATPAYQTAELVAPFQPAIARVLATIPYPTVACVVLAYPAGLGRSVRPGFGVTIPRSQGIRTLGTIWSSCLFPQRTPAGWQVFTSMIGGATDPDLASLSEEAIVQQVQQDLNRLLDLPAAKARLLGMKVWRRAIPQYMVGYPEQWQQVTHALSQTPGLFLCSNYAEGVALGDRVEHGNRTAAAVAAYLSGGQP | + (‘+’ per each 10-fold resistance) | +++ (‘+’ per each 10-fold resistance) | + (‘+’ per each 10-fold resistance) | ++ (‘+’ per each 10-fold resistance) | + (‘+’ per each 10-fold resistance) | + (‘+’ per each 10-fold resistance) | +++ (‘+’ per each 10-fold resistance)
CyPPO19 L327T + F360L: variant of CyPPO19 PPO protein (SEQ ID NO: 1) (protein, Synthetic_PPO of Thermosynechococcus elongatus PKUAC-SCTE542 (comprising GenBank No. CP032152.1)) MSEVDVAIVGGGLSGLSLAWRLQQSAPQYSVVLLEASDRLGGNITTQTAEGFVWELGPNSFAPTPALLQLIAEVGLQSELIRGDRHLPRYIYWRGQLYPLQPTRPLALATSNLLSPWGKVRAALGALGFVPPYLGSGDESVNSFFRRHLGQEVAERLVAPFVSGVYAGDPQQLSAAAAFRRIAQLEKLGGGLIAGALHLRRQQAPKPKPPTSVQMRPGELGSFKEGLAALPRAIAQQLKAPIHLQTPVQEITPDPKGGYLLRSGEQTWRARSVVLATPAYQTAELVAPFQPAIARVLATIPYPTVACVVLAYPAGLGRSVRPGFGVTIPRSQGIRTLGTIWSSCLFPQRTPAGWQVFTSLIGGATDPDLASLSEEAIVQQVQQDLNRLLDLPAAKARLLGMKVWRRAIPQYMVGYPEQWQQVTHALSQTPGLFLCSNYAEGVALGDRVEHGNRTAAAVAAYLSGGQP | + (‘+’ per each 10-fold resistance) | ++++ (‘+’ per each 10-fold resistance) | ++ (‘+’ per each 10-fold resistance) | ++ (‘+’ per each 10-fold resistance) | + (‘+’ per each 10-fold resistance) | ++ (‘+’ per each 10-fold resistance) | ++++ (‘+’ per each 10-fold resistance)
CyPPO19 L327T + F360V: variant of CyPPO19 PPO protein (SEQ ID NO: 1) (protein, Synthetic_PPO of Thermosynechococcus elongatus PKUAC-SCTE542 (comprising GenBank No. CP032152.1)) MSEVDVAIVGGGLSGLSLAWRLQQSAPQYSVVLLEASDRLGGNITTQTAEGFVWELGPNSFAPTPALLQLIAEVGLQSELIRGDRHLPRYIYWRGQLYPLQPTRPLALATSNLLSPWGKVRAALGALGFVPPYLGSGDESVNSFFRRHLGQEVAERLVAPFVSGVYAGDPQQLSAAAAFRRIAQLEKLGGGLIAGALHLRRQQAPKPKPPTSVQMRPGELGSFKEGLAALPRAIAQQLKAPIHLQTPVQEITPDPKGGYLLRSGEQTWRARSVVLATPAYQTAELVAPFQPAIARVLATIPYPTVACVVLAYPAGLGRSVRPGFGVTIPRSQGIRTLGTIWSSCLFPQRTPAGWQVFTSVIGGATDPDLASLSEEAIVQQVQQDLNRLLDLPAAKARLLGMKVWRRAIPQYMVGYPEQWQQVTHALSQTPGLFLCSNYAEGVALGDRVEHGNRTAAAVAAYLSGGQP | + (‘+’ per each 10-fold resistance) | ++++ (‘+’ per each 10-fold resistance) | + (‘+’ per each 10-fold resistance) | ++ (‘+’ per each 10-fold resistance) | ++ (‘+’ per each 10-fold resistance) | ++ (‘+’ per each 10-fold resistance) | ++++ (‘+’ per each 10-fold resistance)
